{"source": "paper PMC10786891", "about": "“Massively parallel profiling of RNA-targeting CRISPR-Cas13d”", "binders": {"B1": {"name": "target 1 U3A,U10G (mixed)", "RNA 1": "CACCCGUGCAAAAAUGCAGGGGUCUAAAACUGAGCGGAUAACCUCUCUAUGG", "RNA 2": "GGGAAUGGAUCCACAUCUACGAAUUCGUACCAUAGAGAGGUGAUCCGCACACCGAGAUCGGAAGAGCACACGU"}, "B2": {"name": "target 1 U10G,C22A (mixed)", "RNA 1": "B1 RNA 1", "RNA 2": "B1 RNA 2 with C30A, A49U"}, "B3": {"name": "target 1 insU 3' of 12,insA 3' of 6 (mixed)", "RNA 1": "B1 RNA 1", "RNA 2": "GGGAAUGGAUCCACAUCUACGAAUUCGUACCAUAGAGAGGUUUAUCCAGCUCACCGAGAUCGGAAGAGCACACGU"}, "B4": {"name": "target 1 insG 3' of 16,insA 3' of 10 (mixed)", "RNA 1": "B1 RNA 1", "RNA 2": "B3 RNA 2 with A38G, G39A, U41G, U45A, C46U, A48C"}, "B5": {"name": "target 1 insG 3' of 22,insA 3' of 8 (mixed)", "RNA 1": "B1 RNA 1", "RNA 2": "GGGAAUGGAUCCACAUCUACGAAUUCGUACGCAUAGAGAGGUUAUACCGCUCACCGAGAUCGGAAGAGCACACGU"}, "B6": {"name": "target 1 insA 3' of 15,insC 3' of 8 (mixed)", "RNA 1": "B1 RNA 1", "RNA 2": "B3 RNA 2 with G39A, U41G, A48C"}, "B7": {"name": "target 1 A9U,G12A (mixed)", "RNA 1": "B1 RNA 1", "RNA 2": "B1 RNA 2 with G40A, G42U, A43U, A49U"}, "B8": {"name": "target 1 A18G (mixed)", "RNA 1": "B1 RNA 1", "RNA 2": "B1 RNA 2 with A34G, G42U, A49U"}, "B9": {"name": "target 1 U8G,U19A (mixed)", "RNA 1": "B1 RNA 1", "RNA 2": "B1 RNA 2 with U33A, G42U, U44G, A49U"}, "B10": {"name": "target 1 A1G,A9U (mixed)", "RNA 1": "B1 RNA 1", "RNA 2": "B1 RNA 2 with G42U, A43U, A49U, A51G"}, "B11": {"name": "target 1 insC 3' of 12,insA 3' of 11 (mixed)", "RNA 1": "B1 RNA 1", "RNA 2": "B3 RNA 2 with U41C, U43A, A44U, U45A, C46U, A48C"}, "B12": {"name": "target 1 U11A (mixed)", "RNA 1": "B1 RNA 1", "RNA 2": "B1 RNA 2 with U41A, G42U, A49U"}, "B13": {"name": "target 1 insA 3' of 21,insA 3' of 8 (mixed)", "RNA 1": "B1 RNA 1", "RNA 2": "B5 RNA 2 with G31C, C32A"}, "B14": {"name": "target 1 insC 3' of 12,insG 3' of 2 (mixed)", "RNA 1": "B1 RNA 1", "RNA 2": "B3 RNA 2 with U41C, A48G, G49C, C50U, U51C, C52G"}, "B15": {"name": "target 1 insA 3' of 19,insC 3' of 3 (mixed)", "RNA 1": "B1 RNA 1", "RNA 2": "B5 RNA 2 with G31C, C32A, A33U, U34A, A46C, C48G, G49C, C50U, U51C"}, "B16": {"name": "target 1 insC 3' of 17,insU 3' of 17 (mixed)", "RNA 1": "B1 RNA 1", "RNA 2": "B3 RNA 2 with A36C, G37U, G40A, U41G, U42G, A44U, U45A, C46U, A48C"}, "B17": {"name": "target 1 C4A,G15U (mixed)", "RNA 1": "B1 RNA 1", "RNA 2": "B1 RNA 2 with G37U, G42U, C48A, A49U"}, "B18": {"name": "target 1 C2U,C4A (mixed)", "RNA 1": "B1 RNA 1", "RNA 2": "B1 RNA 2 with G42U, C48A, A49U, C50U"}, "B19": {"name": "target 1 insU 3' of 17,insA 3' of 13 (mixed)", "RNA 1": "B1 RNA 1", "RNA 2": "GGGAAUGGAUCCACAUCUACGAAUUCGUACCAUAGUAGAGAGUUAUCCGCUCACCGAGAUCGGAAGAGCACACGU"}, "B20": {"name": "target 1 A9U (mixed)", "RNA 1": "B1 RNA 1", "RNA 2": "B1 RNA 2 with G42U, A43U, A49U"}, "B21": {"name": "target 1 insG 3' of 9,insA 3' of 5 (mixed)", "RNA 1": "B1 RNA 1", "RNA 2": "B3 RNA 2 with U43A, A44G, A48G, G49A"}, "B22": {"name": "target 1 insG 3' of 11,insG 3' of 7 (mixed)", "RNA 1": "B1 RNA 1", "RNA 2": "B3 RNA 2 with U42G, C47G, A48C"}, "B23": {"name": "target 1 insC 3' of 22,insC 3' of 10 (mixed)", "RNA 1": "B1 RNA 1", "RNA 2": "B5 RNA 2 with G31C, A44C, U45A, A46U"}, "B24": {"name": "target 1 insU 3' of 6,insG 3' of 3 (mixed)", "RNA 1": "B1 RNA 1", "RNA 2": "B3 RNA 2 with U43A, A44U, U45C, C47U, A48G, G49C, C50U, U51G"}, "B25": {"name": "target 1 U8A,C22U (mixed)", "RNA 1": "B1 RNA 1", "RNA 2": "B1 RNA 2 with C30U, G42U, U44A, A49U"}, "B26": {"name": "target 1 G15C,C22A (mixed)", "RNA 1": "B1 RNA 1", "RNA 2": "B1 RNA 2 with C30A, G37C, G42U, A49U"}, "B27": {"name": "target 1 C6G,U11C (mixed)", "RNA 1": "B1 RNA 1", "RNA 2": "B1 RNA 2 with U41C, G42U, C46G, A49U"}, "B28": {"name": "target 1 A1U,A9U (mixed)", "RNA 1": "B1 RNA 1", "RNA 2": "B1 RNA 2 with G42U, A43U, A49U, A51U"}, "B29": {"name": "target 1 G5U,G12C (mixed)", "RNA 1": "B1 RNA 1", "RNA 2": "B1 RNA 2 with G40C, G42U, G47U, A49U"}, "B30": {"name": "target 1 C4U,U8C (mixed)", "RNA 1": "B1 RNA 1", "RNA 2": "B1 RNA 2 with G42U, U44C, C48U, A49U"}}, "note": "Positions count from the first letter of the chain named. Names may count otherwise."}
{"target": "T1, EsCas13d, nuclease-dead (Eubacterium siraeum, UniProt B0MS50, R295A;H300A;R849A;H854A)", "T1 sequence": "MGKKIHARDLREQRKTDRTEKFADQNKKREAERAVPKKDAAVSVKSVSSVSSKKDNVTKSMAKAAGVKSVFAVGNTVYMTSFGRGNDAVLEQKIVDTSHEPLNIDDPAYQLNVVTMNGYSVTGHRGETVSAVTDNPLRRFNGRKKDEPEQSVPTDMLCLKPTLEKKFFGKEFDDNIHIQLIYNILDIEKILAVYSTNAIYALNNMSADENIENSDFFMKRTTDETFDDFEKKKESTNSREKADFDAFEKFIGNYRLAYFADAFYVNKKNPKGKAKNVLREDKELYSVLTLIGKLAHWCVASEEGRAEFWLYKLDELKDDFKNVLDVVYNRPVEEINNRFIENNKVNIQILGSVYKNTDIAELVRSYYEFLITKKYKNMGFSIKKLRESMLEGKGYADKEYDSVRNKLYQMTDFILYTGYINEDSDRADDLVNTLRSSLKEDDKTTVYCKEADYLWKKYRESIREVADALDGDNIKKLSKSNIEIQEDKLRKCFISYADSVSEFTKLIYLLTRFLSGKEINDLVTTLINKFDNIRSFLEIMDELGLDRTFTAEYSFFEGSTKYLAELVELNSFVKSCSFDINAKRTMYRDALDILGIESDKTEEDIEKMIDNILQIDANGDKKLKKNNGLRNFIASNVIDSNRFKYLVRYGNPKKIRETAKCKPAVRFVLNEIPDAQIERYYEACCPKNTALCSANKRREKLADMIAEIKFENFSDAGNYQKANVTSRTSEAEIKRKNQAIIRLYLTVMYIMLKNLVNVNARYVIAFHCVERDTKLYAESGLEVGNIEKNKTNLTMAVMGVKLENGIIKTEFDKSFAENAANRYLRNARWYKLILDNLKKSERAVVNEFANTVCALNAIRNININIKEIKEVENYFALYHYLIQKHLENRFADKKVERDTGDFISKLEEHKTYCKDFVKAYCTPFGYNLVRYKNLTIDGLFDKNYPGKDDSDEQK", "assay": "crRNA (strand 1, pre-loaded); Mg2+; 40 mM Tris-HCl pH 7.5, 150 mM NaCl, 6 mM MgCl2, 1 mM DTT, 0.1% Tween-20, 0.2 mg/ml BSA; 25 C; 10 min per concentration, then washed", "conditions": "tags: His6-TwinStrep-SUMO cleaved; N-terminal SNAP kept (SNAP-Surface 488); label: 3' end held by stalled T7 RNA polymerase", "units": {"Kd": "nM"}}
{"binder": "B1", "Kd": "61 ± 16"}
{"binder": "B2", "Kd": "60 ± 14"}
{"binder": "B3", "Kd": "8.6 ± 0.9"}
{"binder": "B4", "Kd": "19.9 ± 1.5"}
{"binder": "B5", "Kd": "35.9 ± 2.6"}
{"binder": "B6", "Kd": "15.2 ± 1.8"}
{"binder": "B7", "Kd": "7.7 ± 0.4"}
{"binder": "B8", "Kd": "94 ± 28"}
{"binder": "B9", "Kd": "61 ± 13"}
{"binder": "B10", "Kd": "8.1 ± 0.6"}
{"binder": "B11", "Kd": "15 ± 1.2"}
{"binder": "B12", "Kd": "30.7 ± 1.9"}
{"binder": "B13", "Kd": "38.9 ± 1.8"}
{"binder": "B14", "Kd": "9.8 ± 1.2"}
{"binder": "B15", "Kd": "17.4 ± 1.9"}
{"binder": "B16", "Kd": "95 ± 14"}
{"binder": "B17", "Kd": "51 ± 19"}
{"binder": "B18", "Kd": "6.7 ± 0.4"}
{"binder": "B19", "Kd": "13.1 ± 1.3"}
{"binder": "B20", "Kd": "8.9 ± 0.7"}
{"binder": "B21", "Kd": "10.3 ± 1"}
{"binder": "B22", "Kd": "17.2 ± 0.8"}
{"binder": "B23", "Kd": "41 ± 10"}
{"binder": "B24", "Kd": "7.9 ± 0.4"}
{"binder": "B25", "Kd": "35 ± 5"}
{"binder": "B26", "Kd": "63 ± 12"}
{"binder": "B27", "Kd": "9.8 ± 0.8"}
{"binder": "B28", "Kd": "7.8 ± 0.5"}
{"binder": "B29", "Kd": "41 ± 4"}
{"binder": "B30", "Kd": "30 ± 4"}
